For five substances, IC50 results are on record in patent US20030186334A1, “KTS-disintegrins” (Temple University - Of the Commonwealth System of Higher …, priority 2001, published 2003).

Test [1] concerns the target α6β1 integrin (UniProt P23229). Kind of test: inhibition of adhesion of α6K562 cells to laminin.
For test [2], the target named is human α1β1 integrin (human) (UniProt P56199). Kind of test: inhibition of adhesion of α1K562 cells to immobilised collagen IV.
Sequence of human α1β1 integrin (human) (P56199 29-1179, chain 1 of 2): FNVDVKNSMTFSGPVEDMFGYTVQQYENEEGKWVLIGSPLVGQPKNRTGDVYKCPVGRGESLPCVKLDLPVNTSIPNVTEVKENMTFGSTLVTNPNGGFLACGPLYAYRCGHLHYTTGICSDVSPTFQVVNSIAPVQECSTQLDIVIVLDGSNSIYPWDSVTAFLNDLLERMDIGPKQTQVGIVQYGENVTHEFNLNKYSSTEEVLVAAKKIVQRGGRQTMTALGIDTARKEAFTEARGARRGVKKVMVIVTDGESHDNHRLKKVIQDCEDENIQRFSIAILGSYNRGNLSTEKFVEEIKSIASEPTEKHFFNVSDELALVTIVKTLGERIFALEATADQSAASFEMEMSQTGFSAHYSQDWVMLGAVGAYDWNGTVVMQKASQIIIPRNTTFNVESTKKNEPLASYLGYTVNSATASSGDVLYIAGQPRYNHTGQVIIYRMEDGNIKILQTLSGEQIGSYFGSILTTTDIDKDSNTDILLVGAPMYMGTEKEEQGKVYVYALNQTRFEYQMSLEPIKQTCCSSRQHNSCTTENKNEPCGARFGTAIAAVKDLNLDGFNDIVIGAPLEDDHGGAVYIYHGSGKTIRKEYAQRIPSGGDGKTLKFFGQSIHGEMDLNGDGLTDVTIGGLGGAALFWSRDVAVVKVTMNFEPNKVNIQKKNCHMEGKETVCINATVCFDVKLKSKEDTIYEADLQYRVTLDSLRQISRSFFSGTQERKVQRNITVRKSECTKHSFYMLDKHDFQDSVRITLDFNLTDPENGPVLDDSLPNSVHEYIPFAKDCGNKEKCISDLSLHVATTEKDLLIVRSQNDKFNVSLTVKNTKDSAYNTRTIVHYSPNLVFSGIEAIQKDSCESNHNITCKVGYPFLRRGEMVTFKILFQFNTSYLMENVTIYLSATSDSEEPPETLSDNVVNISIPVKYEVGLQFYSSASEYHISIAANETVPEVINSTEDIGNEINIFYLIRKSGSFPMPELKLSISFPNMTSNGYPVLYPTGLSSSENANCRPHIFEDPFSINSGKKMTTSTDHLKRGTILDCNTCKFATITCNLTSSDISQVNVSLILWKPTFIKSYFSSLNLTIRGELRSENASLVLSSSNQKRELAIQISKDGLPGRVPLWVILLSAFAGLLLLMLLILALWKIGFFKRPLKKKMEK
Sequence of human α1β1 integrin (human) (P05556 21-798, chain 2 of 2, further chain): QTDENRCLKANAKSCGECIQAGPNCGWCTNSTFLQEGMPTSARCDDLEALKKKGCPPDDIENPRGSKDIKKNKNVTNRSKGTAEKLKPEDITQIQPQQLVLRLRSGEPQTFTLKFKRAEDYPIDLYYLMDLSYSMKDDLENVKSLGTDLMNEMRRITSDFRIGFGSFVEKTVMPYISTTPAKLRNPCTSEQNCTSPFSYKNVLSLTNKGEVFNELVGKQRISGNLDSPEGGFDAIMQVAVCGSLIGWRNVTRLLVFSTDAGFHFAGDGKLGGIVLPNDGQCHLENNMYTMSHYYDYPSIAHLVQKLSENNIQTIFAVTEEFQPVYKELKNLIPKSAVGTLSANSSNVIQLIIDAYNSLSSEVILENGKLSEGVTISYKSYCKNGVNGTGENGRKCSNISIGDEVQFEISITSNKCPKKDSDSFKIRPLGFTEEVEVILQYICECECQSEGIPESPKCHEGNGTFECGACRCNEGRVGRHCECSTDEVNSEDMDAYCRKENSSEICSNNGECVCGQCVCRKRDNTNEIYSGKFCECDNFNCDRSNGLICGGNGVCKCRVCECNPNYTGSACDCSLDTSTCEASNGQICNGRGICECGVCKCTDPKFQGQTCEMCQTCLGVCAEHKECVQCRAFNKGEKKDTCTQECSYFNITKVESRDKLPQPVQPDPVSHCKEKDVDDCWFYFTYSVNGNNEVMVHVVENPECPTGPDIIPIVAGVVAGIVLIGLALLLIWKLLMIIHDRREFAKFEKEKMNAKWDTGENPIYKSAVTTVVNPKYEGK

Sequence of α6β1 integrin (P23229 24-1130, chain 1 of 2): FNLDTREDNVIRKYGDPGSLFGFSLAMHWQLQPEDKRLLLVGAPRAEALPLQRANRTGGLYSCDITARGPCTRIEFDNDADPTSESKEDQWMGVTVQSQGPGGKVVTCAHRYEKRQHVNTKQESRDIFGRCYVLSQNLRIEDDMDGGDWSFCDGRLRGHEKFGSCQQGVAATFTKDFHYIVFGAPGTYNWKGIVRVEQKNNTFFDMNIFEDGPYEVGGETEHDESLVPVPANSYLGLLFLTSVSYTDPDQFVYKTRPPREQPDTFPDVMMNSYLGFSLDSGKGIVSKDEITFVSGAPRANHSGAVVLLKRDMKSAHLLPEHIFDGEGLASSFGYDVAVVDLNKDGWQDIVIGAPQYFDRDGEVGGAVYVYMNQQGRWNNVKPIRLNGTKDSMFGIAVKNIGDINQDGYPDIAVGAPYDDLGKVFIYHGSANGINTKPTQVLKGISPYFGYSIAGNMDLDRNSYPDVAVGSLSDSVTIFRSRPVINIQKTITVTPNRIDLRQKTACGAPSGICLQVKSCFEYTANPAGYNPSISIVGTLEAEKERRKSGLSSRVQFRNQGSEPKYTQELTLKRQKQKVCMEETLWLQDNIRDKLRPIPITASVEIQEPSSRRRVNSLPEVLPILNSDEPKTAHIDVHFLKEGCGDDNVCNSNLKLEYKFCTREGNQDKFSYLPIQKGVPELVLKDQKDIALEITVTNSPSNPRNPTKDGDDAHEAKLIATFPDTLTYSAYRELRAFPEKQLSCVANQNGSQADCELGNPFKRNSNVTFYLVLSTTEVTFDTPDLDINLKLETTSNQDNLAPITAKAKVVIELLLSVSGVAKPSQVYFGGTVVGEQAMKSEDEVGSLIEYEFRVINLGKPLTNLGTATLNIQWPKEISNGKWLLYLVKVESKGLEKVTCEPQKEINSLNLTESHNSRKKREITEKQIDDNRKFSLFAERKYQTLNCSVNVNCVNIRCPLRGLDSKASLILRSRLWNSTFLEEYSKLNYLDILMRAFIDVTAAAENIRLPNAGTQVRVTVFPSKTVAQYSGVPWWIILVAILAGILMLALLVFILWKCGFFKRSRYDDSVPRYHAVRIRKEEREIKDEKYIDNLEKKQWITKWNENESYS
Sequence of α6β1 integrin (P05556 21-798, chain 2 of 2, further chain): as the sequence (P05556 21-798, chain 2 of 2, further chain) above

The term IC50 denotes the midpoint of a concentration-inhibition curve. A lower IC50 goes with higher potency. obtustatin (peptide): in test [1], the IC50 is above 10 µM.

Consider viperisrastatin (peptide), for which, in test [1], the IC50 is above 10 µM. “Ethylpyridylated obtustatin (EP-obtustatin) (peptide)” had an IC50 in test [2] of 30 µM. The substance “echistatin (from UniProt P17347 131-179) (peptide)” yielded an IC50 in test [1] above 10 µM. Still for that read-out and setting: in the case of “eristostatin (from UniProt P0C6S4 1-49) (peptide)” it was above 10 µM.
